{
  "source": "the nanobody polyreactivity screen of Harvey et al. (2022)",
  "data": [
    {"assay": "yeast display, Sf9 membrane polyspecificity reagent, FACS + sequencing; frameworks hold sequencing errors", "procedure,_shortened": "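Genes from sorted yeast were amplified by colony PCR, read by MiSeq 2 × 250 sequencing and filtered on CDR length. These cells carried a synthetic nanobody library in Saccharomyces cerevisiae BJ5465 and were sorted by FACS into low and high (top ~1%) gates on anti-HA and streptavidin fluorescence. Polyreactivity is labelled according to the gate of origin.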", "values": [
      {"sequence": "QVQLVESGGGLVQAGGSLRLSCAASGFTFSRYAMGWYRQAPGKERELVAAITSGGSTYYADSVKGRFTISRDNAMNTVYLQMNSLKPEDTAVYYCAVGVAEFFGYGYWGQGTQVTVSS", "polyreactivity (PSR sort gate)": "high polyreactivity"},
      {"sequence": "QVQLVESGGGLDQARGSLRLSCAASGSTFYYYAMGWYRQAPGKERELVAAITSRGGRTYYADSVKGRFTISRDNAKNTVYLQMNSLKPEDTAVYYCNARTIYYGFDYWGQGTQVTVSS", "polyreactivity (PSR sort gate)": "low polyreactivity"},
      {"sequence": "QVQLVESGGGLVQAGGSLRLSCAASGSTLVGNAMGWYRQAPGKEMELVAVISYRGGSTYYADSVKGRFTISRDNAKNTVYLQMNSLKPEDTAVYDCAARYYRNPVFVIMDYWGQGTQVTVSS", "polyreactivity (PSR sort gate)": "high polyreactivity"},
      {"sequence": "QVQLVESGGGLVQAGGSLRLSCAASGIIFSDYDMGWYRQAPGKERELVAAISWSGGSTYYADSVKGRFTISRDNAKNTVYLQMNSLKPEDTAVYYCAVDSQRQVTSRDDYWGQGTQVTVSS", "polyreactivity (PSR sort gate)": "low polyreactivity"},
      {"sequence": "QVQLGESGGGLVQAGGSLRLSCAASGSIYVNAMGWYRQAPRKERELVAVISKSGGSTYYADSVKGRFTISRDNAKNTVYLQMNSLKPEETAVYYCAASRPSPGPRYGYWGQGTQVTVSS", "polyreactivity (PSR sort gate)": "high polyreactivity"},
      {"sequence": "QVQLVESGGGLVQAGGSLRLSCAASGSIFDVNAMGWYRQAPGKERELVAAISQRGTRTYYADSVKGRFTISRDYAKNTVYLQMNSLTPEDTAVYYCNRGGWRQYDSWGQGTQVTVSS", "polyreactivity (PSR sort gate)": "high polyreactivity"},
      {"sequence": "QVQLVESGGGLVQEGGSLRLSCAASGRTFRINAMGWYRQAPGKERELVAAITSIAGNTYYADSVKGRFTISRDNAKNTVYLQMNSLKPEDTAVYYCAVDSVPWGFRGAYGLTRYYYWGQGTQVTVSS", "polyreactivity (PSR sort gate)": "low polyreactivity"},
      {"sequence": "QVQLVESGGGLVQAGGSLRLRCAASGFTIWPYAMGWYRQAPGKERELVAGITRKGGSTYYADSVKGRFTISRDNAKNTVYLQMNSLKPEDTAVYYCNTKYAVEIDYWGQGTQVTVSS", "polyreactivity (PSR sort gate)": "low polyreactivity"},
      {"sequence": "QVQLVESGGGLVQAGGSLRLSCAASGRTFSSNAMGWYRQAPGKERELVAVITRRGGSTYYADSVKGRFTISRDNAKNTVYLQMNSLKPEDTAVYYCATDAPPQRSGRRSAGQKYYYLGQGTQVTVSS", "polyreactivity (PSR sort gate)": "high polyreactivity"},
      {"sequence": "QVQLVESGGGLVQAGGSLRLSCAASGITLVANTMGWYRQAPGKERELVATITSSGGSTYYADSVKGRFTISRDNAMNTVYLQMISLKPEDTAVYYCAASDLRYRGNYVYLPSEYWGQGTQVNVSS", "polyreactivity (PSR sort gate)": "low polyreactivity"},
      {"sequence": "QVQLVESGGGLVQAGGILRLSCAASGSTFYYYAMGWYRQAPGKERELVAAISSSGGTTYYADSVKGRLTISRDNAKNTVYLQMNSLKAEVTAVYYCAAQRYPSSLYQRFYYWGQGTQVTVSS", "polyreactivity (PSR sort gate)": "high polyreactivity"},
      {"sequence": "QVQLVESGGGLVQAGGSLRLSCAASGLTFPHYAMGWYRQAPGKERELVAAISSGGSTHYADSVKGRFTISRDNAKNTVYLQMNSLKPEDTAVYYCAARRHGRRTVQGKFDFWGQGTQVTVSS", "polyreactivity (PSR sort gate)": "high polyreactivity"},
      {"sequence": "QVQLVESGGGLVQAGGSLRLSCAASGFIFDYNTMGWYRQAPGKERELVADISGGGGRTYYADSVKGRFTISRDNAKNTVYLQMNSLKPEDTAVYYCAALGFYHHAWWISYDYWGQGTQVTVSS", "polyreactivity (PSR sort gate)": "low polyreactivity"},
      {"sequence": "QDQLVESGGGLVQAGGSLRLSCAASGSTFSVYAMGWYRRAPGKERELVATIRGRGGSTSYADSVKGRFTISRDNAKNTVYLQMNSLKPEDTAVYYCAARVVRDWASKRIILALSNYVYWGQGTHVTVSS", "polyreactivity (PSR sort gate)": "high polyreactivity"},
      {"sequence": "QVQLVESGGGLVQAGGSLRISCAAYGSIFTRYAMGWYRQAPGKERELVAAINSGGSTKYADSVKGRFTISRDNAKNSVYLQMISLKPEDTAVYYCNAGYWWYGYDYWGQGSQVTVSS", "polyreactivity (PSR sort gate)": "high polyreactivity"},
      {"sequence": "QVQLVESGGGLVQAGGSLRLSCAASGITFTGYDMGWYRQAPGIERELVADISNGSSTDYADSVKGRFTISRDNAKNTVYFQMISLKPEDTAVYYCAVDIDNWSEYDYWGHGTQVTVSS", "polyreactivity (PSR sort gate)": "low polyreactivity"},
      {"sequence": "QVQLVESGGGLVQAGGSLRLSCAASGITFYDYAMGWYRQAPGKERELVAAISDSGGITYYADSVKGRFTISRDNAKNTVYLQMNSLKPEDTAVYYCNAKSVRRERYKFDYWGQGTQVTVSS", "polyreactivity (PSR sort gate)": "high polyreactivity"},
      {"sequence": "QVQLVESGGGLVQAGGSLRLSCAASGRTFTYYAMGWYRQAPGKVRELVAAITFRGGRTYYADSVKGRFTFSRDNPKNTVYLQMNSLKPEDTAVYYCAAVPLWSYGGNYWGQGTQVTVSS", "polyreactivity (PSR sort gate)": "high polyreactivity"},
      {"sequence": "QVQLVESGGGLVQAGGSLRLSCAASGGTFYRYAMGWYRQAPGKERELVAVISKRGGTTYYADSVKGRFTISRDNAKNTVYLQMNSLKPVDTAVYYCAVRAPQSYGYDYWGQGTQVTVSS", "polyreactivity (PSR sort gate)": "high polyreactivity"},
      {"sequence": "QVQLVESGGGLDQAGGSLRLSCPASAITFQLYAKGWYRQAPGKERELVAAISRSGSGTYYADSVKGRFTISRDNAKNTVYLQMHSLKPEDTAVYYCAALGPGYYWGQGTQVTVSS", "polyreactivity (PSR sort gate)": "high polyreactivity"},
      {"sequence": "QVQLVESGGGLVQAGGSLRLICAASGSTFDYYAKGWYRQATGKERELVASITWGDGSTYYADSVKGRFTISRDNAKNTVYLQRNSLKPEDTAVYYCNDDDTQLESYAPGHGYDYWGQGTQVTVSS", "polyreactivity (PSR sort gate)": "low polyreactivity"},
      {"sequence": "QVQLVESGGGLVQAGGSLRLSCAASGRTFYYNGMGWYRQAPGKERELVAAITSGGTTSYADSVKGRFTISRDNAKNTVYLLMNCLKPEDTAVYYCNAECAPWGSAYGHDQYDYWGQGTQVTVSS", "polyreactivity (PSR sort gate)": "low polyreactivity"},
      {"sequence": "QVQLVESGGRLVQAGGSLRLSCPASGIIRGTNAMGGYRQAPGKERELVASITSGAGITYYADSVKGRFTISRDNAKNTVYLQMNSLKPEDTAVYYCNTYPYLWGQGTQVTVSS", "polyreactivity (PSR sort gate)": "low polyreactivity"},
      {"sequence": "QVQLVESGGGLVQAGGSLRLSCAASGRTFGVYAMGWYRQAPGKERELVAASRWSGGGTYYADSVKGRFTISRDNAKNTVYLQMNSLKPEDTAVYYGAATFQNSPYSRYTDMYYWGQGTQVTVSS", "polyreactivity (PSR sort gate)": "low polyreactivity"},
      {"sequence": "QVQLVESGGGLVQAGGSLRLSCAASGRIFGYYAMGWSRQAPGKEWELVAAISSGGRTYYADSVKGRFTISRDNAKNTVYLQMNSLKPEDTAVYYCAARSRVPPAGPRYDYWGQGTQVTVSS", "polyreactivity (PSR sort gate)": "high polyreactivity"},
      {"sequence": "QVQLVESGGGLVQAGGSLRLSCAASGITFWGYVMGWYRQAPGKERELVAAISSSGGRTYYADSVKGRFTISRDNAKNTVYLQMNSLKPEDTAVYYCAARFLYANRYSVDYDYWGQGTQVTVSS", "polyreactivity (PSR sort gate)": "high polyreactivity"},
      {"sequence": "QVQLVESGGGLVQAGGSLRLSCAASGSIFNGYVMGWYTQAPGKERELVAANSRSGGRTYYADSVKGRFTISRDNAKNTVYLQMNSLKPEDTAVYYCAARNYLYAIMGKWLDYNYWGQGTQVTVSS", "polyreactivity (PSR sort gate)": "high polyreactivity"},
      {"sequence": "QVQLVESGGGLVQAGGSLRLSCAASGITFPANAMGWYRQSPGKERELVADISESDGSTYYADSVKGRFTISRDNAKHTVYLQMNRLKPEDTAVYYRAADGTYGTRSDYWGQGTQVTVSS", "polyreactivity (PSR sort gate)": "low polyreactivity"},
      {"sequence": "QVQLVESGGGLVQAGGSLRLSCAASGYIFDLNAMGWSRQAPGKERELVAANSTGGGTYYADSVKGRFTISRDNAKNTVYLQMNILKPEDTAVYYCAADWGYWYAEYDYWGQGTQVTVSS", "polyreactivity (PSR sort gate)": "low polyreactivity"},
      {"sequence": "QVQLVESGGGLVQAGGSLRLSGAASGTLYINLMGWYRQATGKERDLVAAISSNGARTYYADSVKGRFTISRDNAKNTVYLQMNSLKPDDTAVYYSNRVASVRARDYDYWGQGTQVTVSS", "polyreactivity (PSR sort gate)": "high polyreactivity"},
      {"sequence": "QVQLVESGGGLVQAGGSLRLSCAASGLIFGYYAMGWYRQAPGKERELVARITRRGGSTYYADSVKGRFTISRDNAKNTVYLQMNSLKPEDTAVYDCAADWYSPRISREYDYWGQGTQVTVSS", "polyreactivity (PSR sort gate)": "high polyreactivity"}
    ]}
  ]
}
